The experiment addresses human SLC15A4 of the SLC15A4/ALFA_Nanobody/C5 complex (cryo-EM sample) (human) (UniProt Q8N697). As to the kind of experiment: cryo-EM structure; purified SLC15A4/ALFA_Nanobody/C5 complex, 10 µM C5 in all buffers and 100 µM added to peak SEC fractions, 15 mg/ml; 2D averages showed dimeric and monomeric forms; the dimer resolved at 2.50 Å.

A word on the stoichiometry N: it is the number of molecules, sites or subunits per partner or assembly. Take “human SLC15A4 of the SLC15A4/ALFA_Nanobody/C5 complex (cryo-EM sample) (from UniProt Q8N697 1-577) (natural protein)”: the stoichiometry N is 2.

Source of the values: publication PMC10589233.
